Earlier results, collected in publication PMC3538140.
pKd: −log10 of the molar value.

Target: TRAIL-R1 (Homo sapiens) (UniProt O00220)
Sequence of UniProt O00220 (O00220 24-468): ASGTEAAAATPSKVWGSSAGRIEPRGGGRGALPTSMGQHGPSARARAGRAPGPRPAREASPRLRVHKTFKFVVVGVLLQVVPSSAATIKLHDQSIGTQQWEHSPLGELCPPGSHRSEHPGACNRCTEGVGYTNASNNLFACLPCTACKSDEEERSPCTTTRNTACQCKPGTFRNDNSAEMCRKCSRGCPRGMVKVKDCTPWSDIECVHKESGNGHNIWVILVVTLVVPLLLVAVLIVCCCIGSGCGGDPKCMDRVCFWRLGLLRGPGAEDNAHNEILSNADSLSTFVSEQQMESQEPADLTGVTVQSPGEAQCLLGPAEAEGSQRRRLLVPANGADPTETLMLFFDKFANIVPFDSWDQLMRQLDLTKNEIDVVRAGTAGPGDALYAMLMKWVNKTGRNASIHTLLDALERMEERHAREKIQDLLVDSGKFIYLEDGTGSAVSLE

For TRAIL (from UniProt P50591), the pKd is given as 7.15.
